Test results reported in the RNAGym collection of RNA variant scans (doi:10.7554/elife.90254).

B1: OR4K15 (parent)
chain: GUUAACGGUCAUAGGCCAUGGAAACUAGGAGCACCAUUUCGCUGCCAGUGAAGAAAUGAACAAAGAAAAUCUGGGCCAGGCAGGCAUCAAAAGAAAUAGUCUUGCGCUCAACCAGAAAGUCUGUAAUCAUUUUAAGGGUA

Variants of: B1
Experiment: self-cleavage, relative activity (ratio to wild type); higher = more cleavage; in vitro, sequencing; the parent is a self-cleaving ribozyme

| Variant | self-cleavage |
| --- | --- |
| GUUAACGGUCAUAGCCCAUGGAAACUAGGAGCACCAUUUCGCUGCCAGUGAAGAAAUGAACAAAGAAAAUCUGGGCCAGGCAAGCAUCAAAAGAAAUAGUCUUGCGCUCAACCAGAAAGUCUGUAAUCAUUUUAAGGGUA | 2.06 |
| GUUAACGGUCAUAGACCAUGGAAACUAGGAGCACCAUUUCGCUGCCAGUGAAGAAAUGAACAAUGAAAAUCUGGGCCAGGCAGGCAUCAAAAGAAAUAGUCUUGCGCUCAACCAGAAAGUCUGUAAUCAUUUUAAGGGUA | 1.37 |
| GUUAACGGUCAUAGACCAUGGAAGCUAGGAGCACCAUUUCGCUGCCAGUGAAGAAAUGAACAAAGAAAAUCUGGGCCAGGCAGGCAUCAAAAGAAAUAGUCUUGCGCUCAACCAGAAAGUCUGUAAUCAUUUUAAGGGUA | 1.4 |
| GUUAACGGUCAUAGACCAUGGAAACUAGGAGCACCAUUUCGCUGCCAGUGAAGAAAUGAACAAAGAAAAUCUGGGCCAGGCAGGCGUCAAAAGAAAUAGUCUUGCGCUCAACCAGAAAGUCUGUAAUCAUUUUAAGGGUA | 1.6 |
| GUUAACGGUCAUAGCCCAUGGAAACUAGGAGCACCAUUUCGCUGCCAGUGAAGAAAUGAACAAAGAAAAUCUGGGCCUGGCAGGCAUCAAAAGAAAUAGUCUUGCGCUCAACCAGAAAGUCUGUAAUCAUUUUAAGGGUA | 0.37 |
| GUUAACGGUCAUAGCCCAUGGAAACUAGGAGCACCAUUUCGCUGCCAGUGAAGAAAUGAACAAAGAAAAUCUGGGCCAGGCAGGCAUCAAAAGAAAUAGUCUUGCGCCCAACCAGAAAGUCUGUAAUCAUUUUAAGGGUA | 0.03 |
| GUUAACGGUCAUAGACCAUGGAAACUAGGAGCACCAUUUCGCUGCCAGUGAAGAAAUGAACAAAGAAAAUCCGGGCCAGGCAGGCAUCAAAAGAAAUAGUCUUGCGCUCAACCAGAAAGUCUGUAAUCAUUUUAAGGGUA | 0.37 |
| GUUAACGGUCAUAUGCCAUGGAAACUAGGAGCACCAUUUCGCUGCCAGUGAAGAAAUGAACAAAGAAAAUCUGGGCCAGGCAGGCAUCAAAAGAAAUAGUCUUGCGCUCAACCAGGAAGUCUGUAAUCAUUUUAAGGGUA | 0.63 |
| GUUAACGGUCAUAGUCCAUGGAAACUAGGAGCACCAUUUCGCUGCCAGUGAAGAAGUGAACAAAGAAAAUCUGGGCCAGGCAGGCAUCAAAAGAAAUAGUCUUGCGCUCAACCAGAAAGUCUGUAAUCAUUUUAAGGGUA | 1.89 |
| GUUAACGGUCAUAGACCAUGGAAACUAGGAGCACCAUUUCGCUGCCAGUGAAGAAAUGAACGAAGAAAAUCUGGGCCAGGCAGGCAUCAAAAGAAAUAGUCUUGCGCUCAACCAGAAAGUCUGUAAUCAUUUUAAGGGUA | 0.1 |
| GUUAACGGUCAUAUGCCAUGGAAACUAGGAGCACCAUUUCGCUGCCAGUGAAGAAAUGAACAAAGAAAAUCUGGGCCAGGCAGGCAUCAAAAGAAAUAGUCAUGCGCUCAACCAGAAAGUCUGUAAUCAUUUUAAGGGUA | 0.36 |
| GUUAACGGUCAUAGACCAUGGAAACUAGGAGCACCAUUUCGCUGCCAGUGAAGAAAUGAACAAAGAAAAUCUGGGCCAGGCAGGCAUCAAAAGAAAUAGUCUUGCGCUCAACCAGAAAGUCUGUAAUCAUGUUAAGGGUA | 1.44 |
| GUUAACGGUCAUAGCCCAUGGAAACUAGGAGCACCAUUUCGCUGCCAGUGAAGAAAUGAACAAAGAAAAUCUAGGCCAGGCAGGCAUCAAAAGAAAUAGUCUUGCGCUCAACCAGAAAGUCUGUAAUCAUUUUAAGGGUA | 0.17 |
| GUUAACGGUCAUAGACCAUGGAAACUAGGAGCACCAUUUCGCCGCCAGUGAAGAAAUGAACAAAGAAAAUCUGGGCCAGGCAGGCAUCAAAAGAAAUAGUCUUGCGCUCAACCAGAAAGUCUGUAAUCAUUUUAAGGGUA | 1.35 |
| GUUAACGGUCAUAGACCAUGGAAACUAGGAGCACCAUUUCGCUGCCAGUGAAGAAAUGAACAAAGAAAAUCUGGGCCAGGCAGGCAUCAAAAGAAAUAGUCUUGCGCUCAACCAGAAAGACUGUAAUCAUUUUAAGGGUA | 1.72 |
| GUUAACGGUCAUAGACCAUGGAAACUAGGAGCACCAUUUCGCUGCCAGUGAAGAAAUGAACAAAGAAAAUCUGGGCCAGGCAGGCAUCAAAAGAAAUAGUCUUGCGCUCAACCAGAAAGCCUGUAAUCAUUUUAAGGGUA | 1.01 |
| GUUAACGGUCAUAGACCAUGGAAACUAGGAGCACCAUUUCGCUGCCAGUGAAGAAAUGAACAAAGAAGAUCUGGGCCAGGCAGGCAUCAAAAGAAAUAGUCUUGCGCUCAACCAGAAAGUCUGUAAUCAUUUUAAGGGUA | 1.73 |
| GUUAACGGUCAUAGACCAUGGAAACUAGGAGCACCAUUUCGCUGCCAGUGAAGAAAUGAACAAAGAAAAUCUGGGCCAGGCAGGCAUCAAAAGAAAUAGUCUCGCGCUCAACCAGAAAGUCUGUAAUCAUUUUAAGGGUA | 0.82 |
| GUUAACGGUCAUAGACCAUGGAAACUAGGAGCACCAUUUCGCUGCCAGUGAAGAAAUGAACAAAGAAAAUCUGGGCCAGGCAGGCAUCAAAAGAGAUAGUCUUGCGCUCAACCAGAAAGUCUGUAAUCAUUUUAAGGGUA | 1.73 |
| GUUAACGGUCAUAGACCAUGGAAACUAGGAGCGCCAUUUCGCUGCCAGUGAAGAAAUGAACAAAGAAAAUCUGGGCCAGGCAGGCAUCAAAAGAAAUAGUCUUGCGCUCAACCAGAAAGUCUGUAAUCAUUUUAAGGGUA | 0.94 |
| GUUAACGGUCAUAGACCAUGGAAACUAGGAGCACCAUUUCGCUGCCAGUGAAGAAAUGAACAAAGAAAAUCUGGGCCAGGCAGGCAUCAAAAGAAAUAGUCUUGCGCUCAACCAGAAAGUCUGUAAUCAUUUUAAGGGUA | 0.92 |

| Variant | self-cleavage |
| --- | --- |
| GUUAACGGUCAUAGUCCAUGGAAACUAGGAGCACCAUUUCGCUGCCAGUGAAGAAAUGAACAAAGAAAAUCUGGGCCAGGCAGGCAUCAAAAGAAAUAGUCUUGCGCUCAACCAGAAAGUCUGUAAUCAUUUUAAGGGUA | 0.69 |
| GUUAACGGUCAUAGCCCAUGGAAACUAGGAGCACCAUUUCGCUGCCAGUGAAGAAAUGAACAAAGAAAAUCUGGGCCAGGCAGGCAUCAAAAGAAAUAGUCUUGCGCUCAACCAGAAAGUCUGUAAUCAUUUUAAGGGUA | 1.05 |
| GUUAACGGUCAUAUGCCAUGGAAACUAGGAGCACCAUUUCGCUGCCAGUGAAGAAAUGAACAAAGAAAAUCUGGGCCAGGCAGGCAUCGAAAGAAAUAGUCUUGCGCUCAACCAGAAAGUCUGUAAUCAUUUUAAGGGUA | 1.39 |
| GUUAACGGUCAUAGACCAUGGAGACUAGGAGCACCAUUUCGCUGCCAGUGAAGAAAUGAACAAAGAAAAUCUGGGCCAGGCAGGCAUCAAAAGAAAUAGUCUUGCGCUCAACCAGAAAGUCUGUAAUCAUUUUAAGGGUA | 0.9 |
| GUUAACGGUCAUAUGCCAUGGAAACUAGGAGCACCAUCUCGCUGCCAGUGAAGAAAUGAACAAAGAAAAUCUGGGCCAGGCAGGCAUCAAAAGAAAUAGUCUUGCGCUCAACCAGAAAGUCUGUAAUCAUUUUAAGGGUA | 0.66 |
| GUUAACGGUCAUAGUCCAUGGAAACUAGGAGCACCAUUUCGCUGCCAGUGAAGAAAUGAACAAAGAAAGUCUGGGCCAGGCAGGCAUCAAAAGAAAUAGUCUUGCGCUCAACCAGAAAGUCUGUAAUCAUUUUAAGGGUA | 1.46 |
| GUUAACGGUCAUAGACCAUGGAAACUAGGAGCACCAUUUCGCUGCCAGUGAAGAAAUGAACAAAGUAAAUCUGGGCCAGGCAGGCAUCAAAAGAAAUAGUCUUGCGCUCAACCAGAAAGUCUGUAAUCAUUUUAAGGGUA | 1.18 |
| GUUAACGGUCAUAGACCAUGGAAACUAGGAGCACCAUUUCGCUGCCAGUGAAGAAAUGAACAAAGAAAAUCUGGGCCAGGCAGGCAUCAAAAGAAAUAGUCUUGCGCUCAACCAGAAAGUCUGUAGUCAUUUUAAGGGUA | 1.51 |
| GUUAACGGUCAUAGACCAUGGAAACUAGGAGCACCAUUUCGCUGCCAGUGAAGAAAUGAACAAAGAAAAUCUGGGCCAGGCAGGCAUCAAAAGAAAUAGUCUUGCGCUCAACCAGAAAGUCUGUAAUCGUUUUAAGGGUA | 1.19 |
| GUUAACGGUCAUAGACCAUGGAAACUAGGAGCACCAUUUCGCUGCCAGUGAAGAAAUGAACAAAGAAAAUCUGGGCCAGGCAGGCAUCAAAAGAAAUAGUCUUGCGCUCAACCAGAAAGUCCGUAAUCAUUUUAAGGGUA | 0.95 |
| GUUAACGGUCAUAGACCAUGGAAACUAGGAGCACCAUUUCGCUGCCAGUGAAGAAAUGAACAAAGAAAAUCUGGGCCAGGCAGGCAUCAAAAGAAAUAGUCUUGCGCUCAACGAGAAAGUCUGUAAUCAUUUUAAGGGUA | 0.02 |
| GUUAACGGUCAUAGACCAUGGAAACUAGGAGCACCAUUUCGCUGCCAGUGAAGAAAUGAACAAAGAAAAUCUGGGCCAGGCAGGCAUCAAAAGAAAUAGUCUUGCGCCCAACCAGAAAGUCUGUAAUCAUUUUAAGGGUA | 0 |
| GUUAACGGUCAUAGACCAUGGAAACUAGGAGCACCAUUUCGCUGCCAGUGAAGAAAUGAACAAAGAAAAUCUGGGCCAGGCAGGCAUCAAAAGAAAUAGUCUUGCGCACAACCAGAAAGUCUGUAAUCAUUUUAAGGGUA | 0.01 |
| GUUAACGGUCAUAGACCACGGAAACUAGGAGCACCAUUUCGCUGCCAGUGAAGAAAUGAACAAAGAAAAUCUGGGCCAGGCAGGCAUCAAAAGAAAUAGUCUUGCGCUCAACCAGAAAGUCUGUAAUCAUUUUAAGGGUA | 0 |
| GUUAACGGUCAUAGCCCAUGGAAACUAGGAGCACCAUUUCGCUGCCAGUGAAGAAAUGAACAAAGAAAAUCUGGGCCAGGCAGGCAUCAAAAGAAAUAGUCUUGCGCUCAGCCAGAAAGUCUGUAAUCAUUUUAAGGGUA | 0.01 |
| GUUAACGGUCAUAUGCCAUGGAAACUAGGAGCACCAUUUCGCUGCCAGUGAAGAAAUGAACAAAGAAAAUCUGGGCCAGGCAGGCACCAAAAGAAAUAGUCUUGCGCUCAACCAGAAAGUCUGUAAUCAUUUUAAGGGUA | 1.48 |
| GUUAACGGUCAUAGCCCAUGGAAACUAGGAGCACCAUUUCGCUGCCAGUGUAGAAAUGAACAAAGAAAAUCUGGGCCAGGCAGGCAUCAAAAGAAAUAGUCUUGCGCUCAACCAGAAAGUCUGUAAUCAUUUUAAGGGUA | 1.07 |
| GUUAACGGUCAUAGACCAUGGAAACUAGGAGCACCAUUUCGCUGCCAGUGAAGAAAUGAACAAAGAAAAUCUGGGCCAGGCAGGCAUCAAAAGAAAUAGUCUUGCGCUCAACCAGAAGGUCUGUAAUCAUUUUAAGGGUA | 0.47 |
| GUUAACGGUCAUAGACCAUGGAAACUAGGAGCACCAUUUCGCUGCCAGUGGAGAAAUGAACAAAGAAAAUCUGGGCCAGGCAGGCAUCAAAAGAAAUAGUCUUGCGCUCAACCAGAAAGUCUGUAAUCAUUUUAAGGGUA | 1.52 |
| GUUAACGGUCAUAGACCAUGGAAACUAGGAGCACCAUUUCGCUGCCAGUGUAGAAAUGAACAAAGAAAAUCUGGGCCAGGCAGGCAUCAAAAGAAAUAGUCUUGCGCUCAACCAGAAAGUCUGUAAUCAUUUUAAGGGUA | 1.78 |
